Consider 1 protein from PMC10140165, “Cryo-EM reveals the membrane-binding phenomenon of EspB, a virulence factor of the mycobacterial type VII secretion system” (The Journal of Biological Chemistry, 2023).

This series concerns the molecule itself. Put plainly: cryo-EM 2D class averages.

Where “and” joins values, the source holds several entries; their conditions need not be identical. Equal entries are not always repeated.

B1: EspB_(1–332) (domain or fragment)
chain: MTQSQTVTVDQQEILNRANEVEAPMADPPTDVPITPCELTAAKNAAQQLVLSADNMREYLAAGAKERQRLATSLRNAAKAYGEVDEEAATALDNDGEGTVQAESAGAVGGDSSAELTDTPRVATAGEPNFMDLKEAARKLETGDQGASLAHFADGWNTFNLTLQGDVKRFRGFDNWEGDAATACEASLDQQRQWILHMAKLSAAMAKQAQYVAQLHVWARREHPTYEDIVGLERLYAENPSARDQILPVYAEYQQRSEKVLTEYNNKAALEPVNPPKPPPAIKIDPPPPPQEQGLIPGFLMPPSDGSGVTPGTGMPAAPMVPPTGSPGGGLP
Turning to B1, the “stoichiometry N” value was 7 and 6.

Broadly, the stoichiometry N is the number of molecules, sites or subunits per partner or assembly.
